Publication PMC8121779

Biological target: LMW-E-T1 (low molecular weight form of cyclin E, T1), MMTV transgene in mouse salivary gland tumors

decrease of cyclin E-associated histone H1 kinase activity after 3 rounds of immunodepletion of CDK1 (90%), CDK2+/+ tumor lysate (sample 3085): 7%
decrease of cyclin E-associated histone H1 kinase activity after 3 rounds of immunodepletion of CDK1 (90%), CDK2-/- tumor lysate (sample 4111): 14%
Substance: CDK1 (endogenous in mouse salivary gland tumors) (from UniProt P11440 1-297) (enzyme)
